Test results as given in IntAct's records for PubMed 20059542.

B1: UV excision repair protein RAD23 homolog B (Homo sapiens), P54727 (parent)
chain: MQVTLKTLQQQTFKIDIDPEETVKALKEKIESEKGKDAFPVAGQKLIYAGKILNDDTALKEYKIDEKNFVVVMVTKPKAVSTPAPATTQQSAPASTTAVTSSTTTTVAQAPTPVPALAPTSTPASITPASATASSEPAPASAAKQEKPAEKPAETPVATSPTATDSTSGDSSRSNLFEDATSALVTGQSYENMVTEIMSMGYEREQVIAALRASFNNPDRAVEYLLMGIPGDRESQAVVDPPQAASTGAPQSSAVAAAAATTTATTTTTSSGGHPLEFLRNQPQFQQMRQIIQQNPSLLPALLQQIGRENPQLLQQISQHQEHFIQMLNEPVQEAGGQGGGGGGGSGGIAEAGSGHMNYIQVTPQEKEAIERLKALGFPEGLVIQAYFACEKNENLAANFLLQQNFDED
B2: 26S proteasome non-ATPase regulatory subunit 4 (Homo sapiens), P55036 (parent)
chain: MVLESTMVCVDNSEYMRNGDFLPTRLQAQQDAVNIVCHSKTRSNPENNVGLITLANDCEVLTTLTPDTGRILSKLHTVQPKGKITFCTGIRVAHLALKHRQGKNHKMRIIAFVGSPVEDNEKDLVKLAKRLKKEKVNVDIINFGEEEVNTEKLTAFVNTLNGKDGTGSHLVTVPPGPSLADALISSPILAGEGGAMLGLGASDFEFGVDPSADPELALALRVSMEEQRQRQEEEARRAAAASAAEAGIATTGTEDSDDALLKMTISQQEFGRTGLPDLSSMTEEEQIAYAMQMSLQGAEFGQAESADIDASSAMDTSEPAKEEDDYDVMQDPEFLQSVLENLPGVDPNNEAIRNAMGSLASQATKDGKKDKKEEDKK
B3: Ubiquitin domain-containing protein DSK2b (Arabidopsis thaliana (Mouse-ear cress)), Q9SII8 (parent)
chain: MGGEGDSSQPQSGEGEAVAVNIRCSNGTKFSVKTSLDSTVESFKELVAQSSDVPANQQRLIYKGRILKDDQTLLSYGLQADHTIHMVRGSAPSSAPPPAPAASQTTAPSVTRGVGSDNSSNLGGASPGESLFPGLGFNPLGGGNAMSGLFGAGLPDLVQTQQQLAQNPNMIRDMMNTPAIQNLMNNPEFMRSMIMNNPQMRELVDRNPELGHVLNDPSILRQTLEAARNPELMREMMRNTDRAMSNIESMPEGFNMLRRMYENVQEPLMNATTMSGNAGNNTGSNPFAALLGNQGVTTQGSDASNNSSTPNAGTGTIPNANPLPNPWGATGGQTTAPGRTNVGGDARSPGLGGLGGLGSLGGLGGLGMLGADSPLGATPDASQLSQLLQNPAISQMMQSVFSNPQYMNQLMSLNPQLRSMLDSNPQLREMMQNPDFLRQFSSPEMMQQMMTLQQSLSQNRNTASQDAGQTGAATGNNGGLDLLMNMFGSLGAGGLSGTNQSNVPPEERYATQLQQLQEMGFYDRAENIRALLATNGNVNAAVERLLGSIGQ
B4: Ubiquitin domain-containing protein DSK2 (Saccharomyces cerevisiae), P48510 (parent)
chain: MSLNIHIKSGQDKWEVNVAPESTVLQFKEAINKANGIPVANQRLIYSGKILKDDQTVESYHIQDGHSVHLVKSQPKPQTASAAGANNATATGAAAGTGATPNMSSGQSAGFNPLADLTSARYAGYLNMPSADMFGPDGGALNNDSNNQDELLRMMENPIFQSQMNEMLSNPQMLDFMIQSNPQLQAMGPQARQMLQSPMFRQMLTNPDMIRQSMQFARMMDPNAGMGSAGGAASAFPAPGGDAPEEGSNTNTTSSSNTGNNAGTNAGTNAGANTAANPFASLLNPALNPFANAGNAASTGMPAFDPALLASMFQPPVQASQAEDTRPPEERYEHQLRQLNDMGFFDFDRNVAALRRSGGSVQGALDSLLNGDV
partner: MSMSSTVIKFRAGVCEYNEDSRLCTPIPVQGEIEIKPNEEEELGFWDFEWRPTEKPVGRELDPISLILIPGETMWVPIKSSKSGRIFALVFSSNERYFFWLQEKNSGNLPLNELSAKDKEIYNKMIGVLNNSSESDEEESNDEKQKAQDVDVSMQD
B5: Ubiquitin domain-containing protein DSK2 (Saccharomyces cerevisiae), P48510 (parent)
chain: B4 chain
partner: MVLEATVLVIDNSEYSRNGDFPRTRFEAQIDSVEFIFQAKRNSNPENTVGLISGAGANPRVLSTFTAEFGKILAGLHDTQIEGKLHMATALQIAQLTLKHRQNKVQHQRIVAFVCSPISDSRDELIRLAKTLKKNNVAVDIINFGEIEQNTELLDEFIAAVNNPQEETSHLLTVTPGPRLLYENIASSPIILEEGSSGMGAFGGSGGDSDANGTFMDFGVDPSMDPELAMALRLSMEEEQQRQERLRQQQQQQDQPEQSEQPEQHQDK
B6: 26S proteasome non-ATPase regulatory subunit 4 homolog (Arabidopsis thaliana (Mouse-ear cress)), P55034 (parent)
chain: MVLEATMICIDNSEWMRNGDYSPSRLQAQTEAVNLLCGAKTQSNPENTVGILTMAGKGVRVLTTPTSDLGKILACMHGLDVGGEINLTAAIQIAQLALKHRQNKNQRQRIIVFAGSPIKYEKKALEIVGKRLKKNSVSLDIVNFGEDDDEEKPQKLEALLTAVNNNDGSHIVHVPSGANALSDVLLSTPVFTGDEGASGYVSAAAAAAAAGGDFDFGVDPNIDPELALALRVSMEEERARQEAAAKKAADEAGQKDKDGDTASASQETVARTTDKNAEPMDEDSALLDQAIAMSVGDVNMSEAADEDQDLALALQMSMSGEESSEATGAGNNLLGNQAFISSVLSSLPGVDPNDPAVKELLASLPDESKRTEEEESSSKKGEDEKK
partner: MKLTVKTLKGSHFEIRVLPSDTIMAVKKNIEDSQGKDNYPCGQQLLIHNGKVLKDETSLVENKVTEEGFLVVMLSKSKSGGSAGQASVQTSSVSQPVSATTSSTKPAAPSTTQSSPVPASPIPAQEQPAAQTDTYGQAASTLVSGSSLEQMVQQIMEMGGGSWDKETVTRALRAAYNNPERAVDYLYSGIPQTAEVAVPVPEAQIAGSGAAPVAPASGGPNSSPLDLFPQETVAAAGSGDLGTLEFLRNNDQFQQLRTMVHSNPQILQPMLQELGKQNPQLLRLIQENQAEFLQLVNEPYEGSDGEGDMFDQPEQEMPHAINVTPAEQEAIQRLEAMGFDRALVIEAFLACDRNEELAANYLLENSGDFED

Variants of: B1
Settings: with ubc_human UBC

Variant	effect of a mutation on the interaction
M200A;G201A;Y202A	decreasing interaction strength

Variants of: B1
Settings: with psmd4_human PSMD4, P55036

Variant	effect of a mutation on the interaction
L8A	disrupting interaction

Variants of: B1
Settings: with ubc_human UBC
Remark: another data set of the same source

Variant	effect of a mutation on the interaction
M200A;G201A;Y202A;L376A;G377A;F378A	disrupting interaction strength
L376A;G377A;F378A	decreasing interaction strength

Variants of: B2
Settings: with ubql1_human UBQLN1, Q9UMX0
Chain of ubql1_human UBQLN1, Q9UMX0 (Q9UMX0 whole entry): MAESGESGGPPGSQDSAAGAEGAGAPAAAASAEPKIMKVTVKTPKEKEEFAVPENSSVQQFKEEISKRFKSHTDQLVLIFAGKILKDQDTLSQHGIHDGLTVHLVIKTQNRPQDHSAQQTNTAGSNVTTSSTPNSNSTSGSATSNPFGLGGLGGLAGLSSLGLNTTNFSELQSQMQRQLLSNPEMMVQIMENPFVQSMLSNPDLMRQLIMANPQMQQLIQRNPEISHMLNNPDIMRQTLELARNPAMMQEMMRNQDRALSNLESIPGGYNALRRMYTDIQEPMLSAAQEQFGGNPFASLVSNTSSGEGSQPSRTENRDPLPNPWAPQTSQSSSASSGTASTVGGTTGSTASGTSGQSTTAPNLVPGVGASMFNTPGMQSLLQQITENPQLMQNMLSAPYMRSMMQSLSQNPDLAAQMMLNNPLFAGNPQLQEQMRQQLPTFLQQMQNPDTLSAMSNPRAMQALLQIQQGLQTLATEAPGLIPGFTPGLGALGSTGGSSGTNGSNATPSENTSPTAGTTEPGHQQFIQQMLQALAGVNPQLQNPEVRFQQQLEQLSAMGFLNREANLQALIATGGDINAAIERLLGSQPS

Variant	effect of a mutation on the interaction
L216N;A217N;L218N;A219N;L220N;I287N;A288N;Y289N;A290N;M291N	disrupting interaction strength
L216N;A217N;L218N;A219N;L220N	decreasing interaction strength
I287N;A288N;Y289N;A290N;M291N	disrupting interaction strength

Variants of: B2
Settings: with ubql2_human UBQLN2, Q9UHD9
Chain of ubql2_human UBQLN2, Q9UHD9 (Q9UHD9 whole entry): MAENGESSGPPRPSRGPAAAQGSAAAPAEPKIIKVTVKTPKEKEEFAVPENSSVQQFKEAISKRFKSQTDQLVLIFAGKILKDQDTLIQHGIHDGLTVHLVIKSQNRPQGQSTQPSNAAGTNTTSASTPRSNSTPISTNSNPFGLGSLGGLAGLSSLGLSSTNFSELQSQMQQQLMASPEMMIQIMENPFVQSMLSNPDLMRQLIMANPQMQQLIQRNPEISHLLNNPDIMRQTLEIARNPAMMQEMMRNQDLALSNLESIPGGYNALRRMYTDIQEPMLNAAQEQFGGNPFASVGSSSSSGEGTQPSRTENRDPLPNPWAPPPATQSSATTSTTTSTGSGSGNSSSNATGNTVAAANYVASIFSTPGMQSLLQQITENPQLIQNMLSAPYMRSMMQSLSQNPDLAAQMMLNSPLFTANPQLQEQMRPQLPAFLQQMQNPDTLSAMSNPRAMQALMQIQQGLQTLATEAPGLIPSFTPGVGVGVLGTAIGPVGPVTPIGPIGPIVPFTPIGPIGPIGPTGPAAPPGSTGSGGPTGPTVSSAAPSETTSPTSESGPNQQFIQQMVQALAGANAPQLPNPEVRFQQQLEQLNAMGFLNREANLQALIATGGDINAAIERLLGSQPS

Variant	effect of a mutation on the interaction
L216N;A217N;L218N;A219N;L220N;I287N;A288N;Y289N;A290N;M291N	disrupting interaction strength
L216N;A217N;L218N;A219N;L220N	with no effect
I287N;A288N;Y289N;A290N;M291N	disrupting interaction strength

Variants of: B2
Settings: with dsk2_yeast DSK2, P48510

Variant	effect of a mutation on the interaction
L216N;A217N;L218N;A219N;L220N;I287N;A288N;Y289N;A290N;M291N	disrupting interaction strength
L216N;A217N;L218N;A219N;L220N	disrupting interaction strength
I287N;A288N;Y289N;A290N;M291N	with no effect

Variants of: B2
Settings: with rd23b_human RAD23B

Variant	effect of a mutation on the interaction
L216N;A217N;L218N;A219N;L220N;I287N;A288N;Y289N;A290N;M291N	disrupting interaction strength
L216N;A217N;L218N;A219N;L220N	decreasing interaction strength
I287N;A288N;Y289N;A290N;M291N	disrupting interaction strength

Variants of: B3
Settings: with rpn13_arath RPN13, O48726
Chain of rpn13_arath RPN13, O48726 (O48726 whole entry): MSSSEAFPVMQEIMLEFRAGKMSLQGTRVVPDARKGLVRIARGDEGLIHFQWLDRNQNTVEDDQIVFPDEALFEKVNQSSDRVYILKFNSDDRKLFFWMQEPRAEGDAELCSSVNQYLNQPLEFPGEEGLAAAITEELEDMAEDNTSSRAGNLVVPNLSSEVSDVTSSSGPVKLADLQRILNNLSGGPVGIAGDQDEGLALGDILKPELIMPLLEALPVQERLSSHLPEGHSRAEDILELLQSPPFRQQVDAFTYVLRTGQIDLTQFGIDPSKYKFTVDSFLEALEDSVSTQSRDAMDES

Variant	effect of a mutation on the interaction
I61A	disrupting interaction

Variants of: B4
Settings: with rpn13_yeast RPN13, O13563

Variant	effect of a mutation on the interaction
L70A;V71A	decreasing interaction strength
L44A	disrupting interaction strength
V71A	decreasing interaction strength
L70A	decreasing interaction strength
L44A;I45A	disrupting interaction strength
I45A	disrupting interaction strength

Variants of: B4
Settings: with rpn13_yeast RPN13, O13563
Remark: another data set of the same source

Variant	effect of a mutation on the interaction
L44A	disrupting interaction

Variants of: B4
Settings: with rpn13_yeast RPN13, O13563
Remark: another data set of the same source

Variant	effect of a mutation on the interaction
V71A	decreasing interaction

Variants of: B4
Settings: with rpn13_yeast RPN13, O13563
Remark: another data set of the same source

Variant	effect of a mutation on the interaction
L70A	decreasing interaction

Variants of: B4
Settings: with rpn13_yeast RPN13, O13563
Remark: another data set of the same source

Variant	effect of a mutation on the interaction
I45A	disrupting interaction

Variants of: B5
Settings: with rpn10_yeast RPN10, P38886

Variant	effect of a mutation on the interaction
V71A	with no effect
L44A	with no effect
I45A	with no effect
L70A	with no effect
L70A;V71A	disrupting interaction strength
L44A;I45A	disrupting interaction strength

Variants of: B5
Settings: with rpn10_yeast RPN10, P38886
Remark: another data set of the same source

Variant	effect of a mutation on the interaction
V71A	disrupting interaction
L70A	disrupting interaction

Variants of: B6
Settings: with rd23b_arath RAD23B

Variant	effect of a mutation on the interaction
L226D;A227D;L228D;A229D;L230D;L310N;A311N;L312N;A313D;L314N	disrupting interaction strength
L310N;A311N;L312N;A313D;L314N	disrupting interaction strength
L226D;A227D;L228D;A229D;L230D	with no effect
L286N;L287N;Q289N;A290D	with no effect
L286N;L287N;Q289N;A290D;L310N;A311N;L312N;A313D;L314N	disrupting interaction strength
